Source: PMC8660007 (Protein Engineering, Design and Selection, 2021)

B1: Ac-LDPETGELL-NH2 (peptide)
peptide: Ac-LDPETGELL-NH2
notes: phage display-derived peptide DPETGEL extended by two flanking leucines; also called modified phage display-derived peptide; Modified phage display-derived free peptide; source: synthetic peptide (Cambridge Peptides Ltd)
B2: Ac-DPETGEL-NH2 (peptide)
peptide: Ac-DPETGEL-NH2
notes: peptide found by phage display (Hancock et al. 2012); also called phage display-derived peptide; phage display-derived free peptide; source: synthetic peptide (Cambridge Peptides Ltd)

Columns and labels:
Modified Phage CTPR2 = assay: ITC; 166.6 uM Keap1 titrated into 16.66 uM CTPR or peptide; 50 mM Tris-HCl 150 mM NaCl 0.5 mM TCEP pH 8; 20 injections of 2 ul; one-site binding model
[1] = biological target: T1, Keap1 Kelch domain construct (residues 321-624) (UniProt Q14145 321-624); assay: as above; conditions: both partners purified
T1 construct: Keap1 Kelch domain, residues 321-624; pNIC28-BSA4 vector with a TEV cleavage site after the His-tag; gift of Alex Bullock (Structural Genomics Consortium, Oxford); No TEV cleavage is described in the purification; also called Kelch domain of Keap1; source: E. coli C41, purified (Ni-NTA, size exclusion chromatography)
T1 sequence (Q14145 321-624): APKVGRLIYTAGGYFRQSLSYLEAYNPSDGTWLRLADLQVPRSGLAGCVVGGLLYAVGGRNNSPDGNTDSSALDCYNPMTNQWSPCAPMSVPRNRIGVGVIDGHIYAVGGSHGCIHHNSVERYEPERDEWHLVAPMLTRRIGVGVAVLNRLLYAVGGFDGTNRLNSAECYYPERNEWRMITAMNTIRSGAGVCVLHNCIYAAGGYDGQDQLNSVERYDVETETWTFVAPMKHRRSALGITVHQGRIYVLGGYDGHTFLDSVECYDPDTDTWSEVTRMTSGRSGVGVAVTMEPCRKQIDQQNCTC

Molecule	Kd (Modified Phage CTPR2) [nM]	Kd [1] [nM]
Keap1 Kelch domain construct (residues 321-624) (from UniProt Q14145 321-624) (domain or fragment)	22	–
B1	–	4.65
B2	–	341
